Literature values as cited in paper PMC7364852.

Molecular target: Spike RBD (SARS-CoV-2) (UniProt P0DTC2)

## SBP1 (from UniProt Q9BYF1)
  Kd: 47 nM
